Patent US20130052176, “APTAMER FOR NGF AND USE THEREOF” (SHIONOGI & CO., LTD, published 2013)
Residue numbers refer to the chain shown, from its start.

B1: aptamer ID 49 (ssRNA)
RNA: GGGAGAACUUCGACCAGAAGUCGAUAACGAACAAAACUCCCAAUAUGUGCGCAUACA
modifications: 2'-F at all pyrimidines
B2: aptamer ID 18 (ssRNA)
RNA: GGGAGAACUUCGCCAGAAGUUUGAAAGAAACCCAAAUAAAGAUGUGCGCAUCA
modifications: 2'-F at all pyrimidines
B3: aptamer ID 41 (ssRNA)
RNA: GGGAGAACUUCGACCAGAAGUCGAUAACGAACAAAACUCCCAAAGGUAAUGUGCGCAUACA
modifications: 2'-F at all pyrimidines
B4: aptamer ID 39 (ssRNA)
RNA: B3 RNA with U47A
modifications: 2'-F at all pyrimidines
B5: aptamer ID 58 (mixed)
mixed: GGGAUAAAAAUAGAGUUUGATAAACACCUGUAUTAAAACCC
modifications: 5' cholesterol; 3' idT; 2'-F pyrimidines (except dT at 21,34) and a37,a38; 2'-OMe other purines except 2'-OH at 4,7,30
B6: aptamer ID 59 (mixed)
mixed: B5 mixed with T34U
modifications: 5' cholesterol; 3' idT; 2'-F pyrimidines (except dT at 21 and dC at 41) and a37,a38; 2'-OMe other purines except 2'-OH at 4,7,30
B7: aptamer ID 51 (ssRNA)
RNA: GGAGAACUUCGACCAGAGUCGAUAACGAACAAAACUCCAAAUAUGUGCGCAUAC
modifications: 2'-F at all pyrimidines
B8: aptamer ID 40 (ssRNA)
RNA: GGGAGAACUUCGACCAGAAGUCGAUAACGAACAAAACUCCCAAAUAUAUGUGCGCAUACA
modifications: 2'-F at all pyrimidines
B9: aptamer ID 42 (ssRNA)
RNA: B8 RNA with A42G, A43G, U45A, A46U, U47A
modifications: 2'-F at all pyrimidines
B10: aptamer ID 46 (ssRNA)
RNA: GGGAGAACUUCGACCAGAAGUCGAUAACGAACAAAACUCCCAAAUAUGUGCGCAUAC
modifications: 2'-F at all pyrimidines
B11: aptamer ID 13 (ssRNA)
RNA: GGGAGAACUUCGCCAGAAGUUUGAAAGAAACCCAAAUUAAAGUAUGUGCGCAUACA
modifications: 2'-F at all pyrimidines
B12: aptamer ID 15 (ssRNA)
RNA: B11 RNA with A35U, A36U, U37A, U38A
modifications: 2'-F at all pyrimidines
B13: aptamer ID 47 (ssRNA)
RNA: GGGAGAACUUCGACCAGAGUCGAUAACGAACAAAACUCCCAAAUAUGUGCGCAUACA
modifications: 2'-F at all pyrimidines
B14: aptamer ID 16 (ssRNA)
RNA: GGGAGAACUUCGCCAGAAGUUUGAAAGAAACCCAAAUUAAAAAGAUGUGCGCAUCA
modifications: 2'-F at all pyrimidines
B15: aptamer ID 17 (ssRNA)
RNA: GGGAGAACUUCGCCAGAAGUUUGAAAGAAACCCAAAUUAAAGAUGUGCGCAUCA
modifications: 2'-F at all pyrimidines
B16: aptamer ID 50 (ssRNA)
RNA: GGGAGAACUUCGACCAGAGUCGAUAACGAACAAAACUCCCAAUAUGUGCGCAUAC
modifications: 2'-F at all pyrimidines
B17: aptamer ID 44 (ssRNA)
RNA: GGGAGAACUUCGACCAGAAGUCGAUAACGAACAAAACUCCCAAAGGAUGUGCGCAUACA
modifications: 2'-F at all pyrimidines
B18: aptamer ID 45 (ssRNA)
RNA: B17 RNA with G45U, G46A
modifications: 2'-F at all pyrimidines
B19: aptamer ID 11 (ssRNA)
RNA: GGGAGAACUUCGCCAGAAGUUUGAAAGAAACCCAAAUAAAAAGUAUGUGCGCAUACA
modifications: 2'-F at all pyrimidines
B20: aptamer ID 12 (ssRNA)
RNA: B19 RNA with A38U
modifications: 2'-F at all pyrimidines
B21: aptamer ID 14 (ssRNA)
RNA: B19 RNA with A36U
modifications: 2'-F at all pyrimidines
B22: aptamer ID 9 (ssRNA)
RNA: GGGAGAACUUCGACCAGAAGUUUGAAAGAAACCCAAAUUAAAAAGAUGUGCGCAUCA
modifications: 2'-F at all pyrimidines
B23: aptamer ID 37 (ssRNA)
RNA: B3 RNA with A42G, A43G, G45A, G46U, U47A, A48U
modifications: 2'-F at all pyrimidines
B24: aptamer ID 4 (ssRNA)
RNA: GGGAGAACUUCGACCAGAAGUUUGAAAGAAACCCAAAUUAAAGUGAACAGUAUGUGCGCAUACUGGAUCCUCA
modifications: 2'-F at all pyrimidines
B25: aptamer ID 3 (ssRNA)
RNA: GGGAGAACUUCGACCAGAAGUUUGAAAGAAACCCAAAUUAAAGGAACAGUAUGUGCGCAUACAUGGAUCCUCA
modifications: 2'-F at all pyrimidines
B26: aptamer ID 38 (ssRNA)
RNA: GGGAGAACUUCGACCAGAAGUCGAUAACGAACAAAACUCCCAAAGGAAUAUAUGUGCGCAUAC
modifications: 2'-F at all pyrimidines
B27: aptamer ID 6 (ssRNA)
RNA: GGGAGAACUUCGACCAGAAGUUUGAAAGAAACCCAAAAAAGUGAACAGUAUGUGCGCAUACA
modifications: 2'-F at all pyrimidines
B28: aptamer ID 54 (ssRNA)
RNA: GGGAGAACUUCGACCAGAAGAUUUGAAAAAAACCCAAAUUAAAGUAUGUGCGCAUACA
modifications: 2'-F at all pyrimidines
B29: aptamer ID 53 (ssRNA)
RNA: GGGAGAACUUCGACCAGAGUCGAGAGCGAAAGAAACUCCCAAAUAUGUGCGCAUAC
modifications: 2'-F at all pyrimidines
B30: aptamer ID 5 (ssRNA)
RNA: GGGAGAACUUCGACCAGAAGUUUGAAAGAAACCCAAAUUAAAAACAGUAUGUGCGCAUACA
modifications: 2'-F at all pyrimidines
B31: aptamer ID 7 (ssRNA)
RNA: B30 RNA with A43G, A44G, C45A
modifications: 2'-F at all pyrimidines
B32: aptamer ID 2 (ssRNA)
RNA: GGGAGAACUUCGACCAGAAGUUUGAAAGAAACCCAAAUUAAAGUGAAGUAUGUGCGCAUACAUUCCUCA
modifications: 2'-F at all pyrimidines
B33: aptamer ID 8 (ssRNA)
RNA: GGGAGAACUUCGACCAGAAGUUUGAAAGAAACCCAAAUUAAAGUGAACAGAUGUGCGCAUCA
modifications: 2'-F at all pyrimidines
B34: aptamer ID 52 (ssRNA)
RNA: GGGAGAACUUCGACCAGAAGUUUGAAAAAAACCCAAAUUAAAGUAUGUGCGCAUACA
modifications: 2'-F at all pyrimidines
B35: aptamer ID 33 (ssRNA)
RNA: GGGAGAACUUCGACCAGAAGUCGAUAACGAACAAAACUCCCAAAGGAAUAUAUGUGCGCAUACAUGGAUCCU
modifications: 2'-F at all pyrimidines
B36: aptamer ID 31 (ssRNA)
RNA: GGGAGAACUUCGACCAGAAGUCGAUAACGAACAAAACUCCCAAAGGAAUAUAUGUGCGCAUACAUGGAU
modifications: 2'-F at all pyrimidines
B37: aptamer ID 34 (ssRNA)
RNA: GGGAGAACUUCGACCAGAAGUCGAUAACGAACAAAACUCCCAAAGGAAUAUGUGCGCAUACA
modifications: 2'-F at all pyrimidines
B38: aptamer ID 35 (ssRNA)
RNA: B37 RNA with A47U
modifications: 2'-F at all pyrimidines
B39: aptamer ID 36 (ssRNA)
RNA: B37 RNA with G45A, G46A, A47U
modifications: 2'-F at all pyrimidines
B40: aptamer ID 26(17) (ssRNA)
RNA: GGGAGACUCGCCAGAGUUGAAAGAAACCCAAAUAAGUGUGCGCAC
modifications: 2'-F pyrimidines; 2'-OMe purines except 2'-OH at 3,5,19-22,24,26; 5' idT; 3' PEG40GS2 (amino C-6 linker)
B41: aptamer ID 26(16) (ssRNA)
RNA: B40 RNA
modifications: 2'-F pyrimidines; 2'-OMe purines except 2'-OH at 3,5,19-22,24,26; 5' PEG40GS2 (ssH linker); 3' idT
B42: aptamer ID 20 (ssRNA)
RNA: GGGAGAACUUCGCCAGAAGUUUGAAAGAAACCCAAAUAAAGUGUGCGCACA
modifications: 2'-F at all pyrimidines

Molecular target: T1, NGF (nerve growth factor) (human, UniProt P01138 P01138:122-241)
T1 sequence (P01138 122-241, one chain of several): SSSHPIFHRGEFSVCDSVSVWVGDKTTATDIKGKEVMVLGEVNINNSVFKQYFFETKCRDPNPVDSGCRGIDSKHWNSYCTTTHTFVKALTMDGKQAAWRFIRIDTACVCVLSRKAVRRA
Experiment: cell_activity; neurite outgrowth, NGF 1.1 nM; SPR binding
Conditions: tags: amine-coupled to CM5 chip in SPR; soluble in cell assays; chain copies: 2
Experimental: (§1) The neurite outgrowth inhibitory activity of the aptamer obtained in Example 1 was evaluated by using Neuroscreen-1 cell, which is a subclone of PC-12 cells.
(§2) The cells (2500 cells per well) were cultured for one day in an RPMI-1640 medium containing 2.5% horse serum and 1.25% fetal bovine serum in a 96 well flat-bottom plate coated with collagen type IV. […] Two days later, the cytoplasm and nuclei were stained using Cellomics Neurite Outgrowth Kit (manufactured by Thermo Scientific), and neurite length per cell was measured by Cellomics ArrayScan VTI (manufactured by Thermo Scientific). With the neurite length per cell obtained by the addition of NGF alone as inhibitory activity 0%, and that of the cell obtained by NGF free culture for 2 days as inhibitory activity 100%, the inhibitory activity of the aptamer was calculated from the neurite length per cell obtained by culturing with the addition of NGF and the aptamer in mixture. When the inhibitory activity was 0% or below, ‘0%’ is indicated.

Binder	IC50
B1	1.8 nM
B2	< 10 nM
B3	< 3 nM
B4	< 3 nM
B5	5.4 nM
B6	6.9 nM
B7	2.7 nM
B8	< 3 nM
B9	< 3 nM
B10	2.6 nM
B11	1.3 nM
B12	1.9 nM
B13	2.5 nM
B14	1.1 nM
B15	< 1 nM
B16	2.6 nM
B17	< 3 nM
B18	< 3 nM
B19	1.5 nM
B20	1.4 nM
B21	1.2 nM
B22	< 3 nM

Molecular target: T1, NGF (nerve growth factor)
Experiment: cell_activity; neurite outgrowth, NGF 1.1 nM; SPR binding; blocks NGF-TrkA
Conditions: tags: amine-coupled to CM5 chip in SPR; soluble in cell assays; chain copies: 2
Experimental: as §1, §2

Binder	IC50
B23	< 3 nM
B24	< 3 nM
B25	< 3 nM
B26	< 3 nM
B27	< 3 nM
B28	3 nM
B29	4.7 nM
B30	< 3 nM
B31	< 3 nM
B32	< 3 nM
B33	< 3 nM
B34	5.9 nM
B35	< 3 nM
B36	< 3 nM
B37	< 3 nM
B38	< 3 nM
B39	< 3 nM

Molecular target: T1, NGF (nerve growth factor)
Experiment: cell_activity; neurite outgrowth, NGF 0.38 nM; not tested by SPR; TF-1 IC50 <0.1 nM
Conditions: tags:; soluble in cell assays; chain copies: 2
Experimental: as §1, §2

Binder	IC50
B40	< 0.1 nM
B41	< 0.1 nM

Molecular target: T1, NGF (nerve growth factor)
Experiment: cell_activity; neurite outgrowth, NGF 1.1 nM; SPR binding; TF-1 IC50 <1.0 nM
Conditions: tags: amine-coupled to CM5 chip in SPR; soluble in cell assays; chain copies: 2

Binder	IC50
GGGAGAACUUCGCCAGAAGUUUGAAAGAAACCCAAAUAAGUGUGCGCAC (ssRNA, 2'-F at all pyrimidines) [aptamer ID 24]	< 1 nM
GGGAGACUCGCCAGAGUUGAAAGAAACCCAAAUAAAGUGUGCGCACA (ssRNA, 2'-F at all pyrimidines) [aptamer ID 25]	< 1 nM
B42	1 nM
GGGAGACUCGCCAGAGUUGAAAGAAACCCAAAUAAGUGUGCGCAC (ssRNA, 2'-F pyrimidines; 2'-OMe at 36,38,40,42,44; other purines 2'-OH) [aptamer ID 26(6)]	< 1 nM
GGGAGAACUUCGCCAGAAGUUUGAAAGAAACCCAAAUAAGUGUGCGCACA (ssRNA, 2'-F at all pyrimidines) [aptamer ID 23]	< 1 nM
